The source of these data is patent publication US20250320277A1 (ALBERT EINSTEIN COLLEGE OF MEDICINE, published 2025).

A word on the EC50: it is the concentration that produces a half-maximal response. A lower EC50 goes with an effect from little substance. By Kd is commonly meant the equilibrium constant for the complex coming apart. Higher therefore signals lower affinity. As a reminder, the koff is the rate constant with which the complex falls apart. The low end stands for slow dissociation, the high end for fast dissociation. What is called kon is the second-order rate constant of association. Lower therefore signals slow association.

Test [1] addresses T1, MAYV p62-E1 (Mayaro virus (BeAr 20290)).
T1 construct: extracellular domain
Put plainly: ELISA, plate-coated p62-E1, eight-point mAb dilution. In general terms: ELISA stands for enzyme-linked immunosorbent assay.

Test [2] has as its target T1, MAYV p62-E1. Put plainly: BLI, […], global 1:1 fit; […].
For test [3], the target named is T1, MAYV p62-E1.

B1: DC2.M287 (antibody, V domains shown)
VH: EVQLVESGGGLVQPGGSLRLSCAASGFTFRDYWMIWVRQTPGKGLEWVANINRNGNEKHYVDSLKGRFTISRDNTKNSLYLQVNGLSAEDTAVYYCVRDSSPSFGPGNYYDAFDIWGQGTTVTVSS
VL: DIRVTQSPSSLSASVGDRVTITCRASQDIRNEVGWYQQKPGQAPKVLIFAASTLQSGVPSRFRGSGSGTVFTLTISSLQPEDLATYYCLQDFNYPRTFGQGTKVDIK
In turn, B1 displayed an EC50 with MAYV p62-E1 [1] of 220 nM. This counts as sub-micromolar.

B2: DC2.M301 (antibody, V domains shown)
VH: QVQLVQSGAEVKKPGAAVKVSCKASGYTFSGYYIHWVRQAPGQGLEWMGWINPNSGGTDFAQKFQGRVTMTRDTSISTAYMELSRLRSDDTAVYLCSRDPGYTYGYPLGYWGQGTLVTVSS
VL: ETTLTQSPGTLSLSPGERATLSCRASQSVSSSYLAWYQQKPGQAPRLLIYGTSSRATGIPDRFSGRGSGTDFTLTISRLEPEDFAVYYCQQYGNSPPYTFGQGTKVDIK
The molecule B2 registered a dissociation constant Kd in the test with MAYV p62-E1 [2] of 15 nM. Besides, in the test with MAYV p62-E1 [3], the koff is 0.0047 s⁻¹ and the kon was found to be 300000 M⁻¹ s⁻¹. Moreover, a half-maximal effect with MAYV p62-E1 [1] (EC50) was put at 4.6 nM.

B3: DC2.M17 (antibody, V domains shown)
VH: EVQLVESGSELKKPGASVRVSCEASGYSFTSHTIVWMRQAPGQGLECLGWINTNTGNPTYAQGFTGRFVFSLDTSVSTAYLQISSLKAADTAVYYCARVLKCLGGSASCSGHGYYDYGMAVWGQGTTVTVSS
VL: DIVLTQSPLSLPVTPGEPASISCRSSQSLLHSNGYNFLHWYLQKPGQSPQLLIYLGSIRASGVPDRFSGSGSGTDFTLKISRVEAEDVGVYYCMQALQTFMYTFGQGTKLEIK
With B3, the midpoint of the response with MAYV p62-E1 [1], the EC50, lay at 1.9 nM.
